Source: US20240376556, “BIOSENSORS FOR DETECTING AND/OR NEUTRALIZING BIOAVAILABLE URANIUM AND RELATED U-SENSITIVE GENETIC MOLECULAR COMPONENTS, GENE CASSETTES, VECTORS, GENETIC CIRCUITS, COMPOSITIONS, METHODS AND SYSTEMS” (LAWRENCE LIVERMORE NATIONAL SECURITY, LLC, published 2024)

Target: T1, UrpR (CCNA_01362), native in cells (Caulobacter crescentus NA1000)
T1 chain: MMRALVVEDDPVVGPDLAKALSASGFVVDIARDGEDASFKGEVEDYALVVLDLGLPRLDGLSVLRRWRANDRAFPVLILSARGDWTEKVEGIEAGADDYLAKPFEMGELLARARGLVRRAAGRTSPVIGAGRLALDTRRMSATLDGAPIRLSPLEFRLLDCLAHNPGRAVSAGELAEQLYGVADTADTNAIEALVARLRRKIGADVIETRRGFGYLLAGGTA
Assay: cell_activity; P1361-gfp induction in wild type with 20 uM U; U induction abolished by CCNA_01362 deletion

B1: P1361 promoter (dsDNA)
DNA 1: GAACGATAGCGCCGCCTGCGAGCGCGACCTCAGGCCTCGGACGAAGCGCGTCCGGGGCCTTTTCTTGTCGATGTTCAGCGCCTGGTTACCGGCGATGGCGCGGTGTCAGCGTTCGGGCGTTGCGATGCGTCAGGAGCGTGTCAGGATGCCTGTGGAATCCTAAGCGCCATCACCCAGTCCCGATCTTTCC
DNA 2: GGAAAGATCGGGACTGGGTGATGGCGCTTAGGATTCCACAGGCATCCTGACACGCTCCTGACGCATCGCAACGCCCGAACGCTGACACCGCGCCATCGCCGGTAACCAGGCGCTGAACATCGACAAGAAAAGGCCCCGGACGCGCTTCGTCCGAGGCCTGAGGTCGCGCTCGCAGGCGGCGCTATCGTTC
Question: For B1, which activity is on record?
Answer: The activity was 10.5 fold.
